The values below come from article PMC4489214.

For the experiment, the target named is LRRTM2 expressed on K562 cells (mouse) (UniProt Q8BGA3). In words: cell adhesion assay; K562 'prey' cells (NRX1-alpha variant, beta-Gal, RFP) mixed with biotinylated K562 'bait' cells (LRRTM2 or NL3(A2), AP-GFP, BirA-ER) on neutravidin magnetic beads; 60 min at RT in DMEM without serum; bound cells read by beta-Gal activity.
Chain of UniProt Q8BGA3 (Q8BGA3 34-515): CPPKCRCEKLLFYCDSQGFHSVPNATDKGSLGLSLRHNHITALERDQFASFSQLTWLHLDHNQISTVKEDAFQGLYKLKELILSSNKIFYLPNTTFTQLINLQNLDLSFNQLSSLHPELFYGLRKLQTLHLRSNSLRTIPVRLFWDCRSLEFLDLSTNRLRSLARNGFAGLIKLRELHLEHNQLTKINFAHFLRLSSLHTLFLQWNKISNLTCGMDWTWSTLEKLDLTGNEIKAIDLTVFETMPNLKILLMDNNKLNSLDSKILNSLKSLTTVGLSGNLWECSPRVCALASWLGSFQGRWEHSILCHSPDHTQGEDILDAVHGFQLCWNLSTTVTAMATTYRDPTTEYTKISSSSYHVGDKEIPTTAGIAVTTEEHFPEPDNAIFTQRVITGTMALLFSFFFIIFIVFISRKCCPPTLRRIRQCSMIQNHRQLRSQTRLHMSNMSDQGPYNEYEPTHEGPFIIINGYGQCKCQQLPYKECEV

“NRX1alpha lacking the insertions at AS3 and AS6, expressed on K562 cells (from UniProt Q9CS84 31-1514) (receptor)” returned a fold increase of adhesion against the AS6+ isoforms of 3 fold.
Turning to “NRX1alpha with the insertion at AS3 and lacking the insertion at AS6, expressed on K562 cells (from UniProt Q9CS84 31-1514) (receptor)”, the fold increase of adhesion against the AS6+ isoforms worked out at 3 fold.
